From patent publication US20190083609A1, “TOFACITINIB AS VACCINATION IMMUNE MODULATOR” (HELMOLTZ ZENTRUM MÜNCHEN - DEUTSCHES FORSCHUNGSZENTRUM FÜR …, priority 2016, published 2019)

Experiments:
[1] = test system: human naive CD4+ T cells; assay: Differentiation of human naive CD4+ T cells into FOXP3+ CD4+ T cells (flow cytometry); assay type: cell-based; conditions: for increase of the percentage of FOXP3 expressing cells: average of 3 donors versus polarization control; for FOXP3 producing cells within the living CD4+ T cell population: range of 3 donors, control 17.7-43.6%, 5 days
Procedure: For the differentiation of human naive CD4^+ T cells into FOXP3^+ CD4^+ T cells, human peripheral blood mononuclear cells were isolated from heparinized whole blood by standard density gradient centrifugation (Lymphoprep, Axis Shield, Oslo, Norway). Naive CD4^+ T cells were isolated using the Naive CD4^+ T cell Kit II (Miltenyi Biotec, Bergisch Gladbach, Germany) and by additional depletion of CD45RO^+ cells (CD45RO microbeads, Miltenyi Biotec). Cells were cultured in RPMI 1640 (Thermo Fisher Scientific, Waltham, Mass. USA) complete (10% FCS, Biochrom, Merck, Berlin, Germany; 2 mM L-glutamine, 100 U/mL Penicillin/Streptomycin, Thermo Fisher Scientific) in 24-well plates at a concentration of 1×10^6 cells/mL at 37° C. After isolation, cells were stimulated with plate-bound anti-CD3 (10 μg/mL; clone UCHT1, BD Biosciences) and 2 μg/mL anti-CD28 (clone CD28.2, BD Biosciences, 2 μg/mL) in solution and cultured for five days. To induce FOXP3 expression, the culture medium was supplemented with 50 U/mL rIL-2 (Novartis, Nurnberg, Germany) and 5 ng/mL TGF-01 (Promokine). Beneath this control, cells were cultured in the presence of different concentrations of Tofacitinib, Rapamycin (Sigma-Aldrich) and Cyclosporine A (Sigma-Aldrich). After three days of culture, half of the medium was removed and replaced by fresh RPMI 1640 complete, supplemented with the same doses of cytokines and agents as at day 0.
After five days of culture, the cells were washed with ice-cold PBS and stained with LIVE/DEAD Fixable Aqua Dead Cell Stain Kit (Thermo Fisher Scientific) according to the manufacturer's protocol. Moreover the cells were stained 1:300 with anti-CD4-Alexa Flour700 (BioLegend) and 1:100 with anti-FOXP3-eFlour450 (eBiosciences, affymetrix, Frankfurt am Main, Germany) by using the FOXP3/Transcription Factor Staining Buffer Set (eBiosciences, affymetrix) according to manufacturer's protocol. The acquisition of cells was performed with BD FACSDIVA 7.0 on a BD
LSR Fortessa (BD Biosciences). Data were analyzed with the software FlowJo (Tree Star, Ashland, Oreg.), the lymphocyte population was gated on CD4^+ cells and dead cells were excluded from the analysis.

[2] = humans; cited from earlier work
[3] = test system: T cells (total splenocytes from wild type mice); assay: T cell stimulation in cell culture (viable cells by CellTiter-Glo); assay type: cell-based, mouse; conditions: Tofacitinib 50, 150, 500 ng/ml; IL-2/anti-CD3 low and high stimulation; 4 days
Procedure: (§2) For the T and B cell stimulation spleen cell from wild type mice were isolated and cells were cultivated in 200 μl/well in RPMI complete in cell culture plates (100,000 cells/well). For T cell stimulation total splenocytes were incubated 4 days with 1 ng/ml II-2 and 1 pg/ml anti-CD3 (Low) or 5 ng/ml II-2 and 10 pg/ml anti-CD3 (High) and three varying concentrations of Tofacitinib 50 ng/ml, 150 ng/ml and 500 ng/ml. For B cell stimulation cells were stimulated 8 days by incubation with 1 pg/ml anti-CD40 and 1L4 1 ng/ml (Low) and with 1 pg/ml anti-CD40 and 5 ng/ml (High) and three varying concentrations of Tofacitinib 50 ng/ml, 150 ng/ml and 500 ng/ml. The number of viable cells was determined by CellTiter-Glo Assay (Promega) and IgE concentration in the supernatant was measured by ELISA.

[4] = test system: B cells (spleen cells from wild type mice); assay: B cell stimulation in cell culture (CellTiter-Glo; IgE ELISA of supernatant); assay type: cell-based, mouse; conditions: Tofacitinib 50, 150, 500 ng/ml, 8 days
Procedure: as §2

[5] = test system: OVA-allergic mice; assay: Plasma immunoglobulins (total IgE ELISA, IgG1 MSD) after challenge in OVA allergic airway inflammation / ASIT model; assay type: in vivo, mouse
Procedure: (§1) For allergic sensitization and allergen-challenge, mice were treated twice by intraperitoneal injection of […] OVA (chicken ovalbumin, Sigma, Germany) and 0.5 mg aluminum hydroxide (alum; 40 mg magnesium/40 mg alum per ml; inject® ThermoFischer, Rockford, USA) in 200 μl phosphate buffered saline (PBS) at day (D) 1 and D-7 as previously described (Aguilar-Pimentel J A, Alessandrini F, Huster K M, Jakob T, Schulz H, Behrendt H, et al. Specific CD8 T cells in IgE-mediated allergy correlate with allergen dose and allergic phenotype, Am J Respir Crit Care Med 2010; 181:7-16, and Fuchs H, Gailus-Durner V, Adler T, Aguilar-Pimentel J A, Becker L, Calzada-Wack J, et al. Mouse phenotyping, Methods 2011; 53:120-35). Subsequently, mice were challenged by inhalative exposure to OVA aerosol (1% in PBS) for 10 min once a day at D-49, 52 and 55. 24 h after the last challenge (D-56) blood samples were collected and animals sacrificed to obtain bronchoalveolar lavage (BAL) samples.
For allergen-specific-immunotherapy (ASIT), animals were treated by subcutaneous injection of 1 mg OVA D-22, and 0.5 mg OVA D-29. For treatment with Tofacitinib, two doses per day were administrated on D-20 to D-24, and D-27 to D-31. […]

[6] = test system: OVA-allergic mice; assay: BAL cell infiltration by flow cytometry in OVA allergic airway inflammation / ASIT model; assay type: in vivo, mouse
Procedure: as §1, with “Subsequently, mice were challenged by inhalative exposure to OVA aerosol (1% in PBS) for 10 min once a day at D-49, 52 and 55. 24 h after the last challenge (D-56) blood samples were collected and animals sacrificed to obtain bronchoalveolar lavage (BAL) samples.” left out
Four experimental groups of mice each group consisting of 14 mice were analyzed in parallel (FIGS. 1 and 2): […]
Flow cytometry was performed to quantify cell surface markers of BAL cells using the following monoclonal antibodies: anti-CD8a, anti-Lytic, anti-CD4, anti-CD62L, anti-CD3, anti-CD25, anti- GO, anti-CD19, anti-CD11 b, anti-CD11 c, and anti-MHC-II (Fuchs H, Gailus-Durner V, Adler T, Aguilar-Pimentel J A, Becker L, Calzada-Wack J, et al. Mouse phenotyping, Methods 2011; 53:120-35). Data were acquired using a LSRII flow cytometer (BD Bioscience) and further analyzed with FACSDiVa (BD Bioscience) and Flowjo V.7.2.2 (Tree star, Ashland, USA) software. […]

[7] = test system: OVA-allergic mice; assay: Cytokine profile in BAL fluid (MSD multiplex) in OVA allergic airway inflammation / ASIT model; assay type: in vivo, mouse
Procedure: as §1
For allergen-specific-immunotherapy (ASIT), animals were treated by subcutaneous injection of 1 mg OVA D-22, and 0.5 mg OVA D-29. For treatment with Tofacitinib, two doses per day were administrated on D-20 to D-24, and D-27 to D-31.
Flow cytometry was performed to quantify cell surface markers of BAL cells using the following monoclonal antibodies: anti-CD8a, anti-Lytic, anti-CD4, anti-CD62L, anti-CD3, anti-CD25, anti- GO, anti-CD19, anti-CD11 b, anti-CD11 c, and anti-MHC-II (Fuchs H, Gailus-Durner V, Adler T, Aguilar-Pimentel J A, Becker L, Calzada-Wack J, et al. Mouse phenotyping, Methods 2011; 53:120-35). Data were acquired using a LSRII flow cytometer (BD Bioscience) and further analyzed with FACSDiVa (BD Bioscience) and Flowjo V.7.2.2 (Tree star, Ashland, USA) software. Cytokines from BAL were analyzed by a multiplex measurement of proinflammatory cytokines from Meso Scale Discovery electrochemiluminescence assay (MSD, USA).

[8] = test system: OVA-allergic mice; assay: Systemic (plasma) cytokine profile in OVA allergic airway inflammation / ASIT model; assay type: in vivo, mouse; conditions: after OVA-aerosol challenge
Procedure: as §1, with “samples. […]” for “samples.”
Mouse blood samples were collected before and after challenge as previously described (Aguilar-Pimentel J A, Alessandrini F, Huster K M, Jakob T, Schulz H, Behrendt H, et al. Specific CD8 T cells in IgE-mediated allergy correlate with allergen dose and allergic phenotype, Am J Respir Crit Care Med 2010; 181:7-16; Fuchs H, Gailus-Durner V, Adler T, Aguilar-Pimentel J A, Becker L, Calzada-Wack J, et al. Mouse phenotyping, Methods 2011; 53:120-35 and Fulton R J, McDade R L, Smith P L, Kienker L J, Kettman J R, Jr. Advanced multiplexed analysis with the FlowMetrix system, Clin Chem 1997; 43:1749-56) by puncturing the retro-orbital plexus (Li-heparin-coated tubes, KADE, Numbrecht, Germany) under isoflurane anesthesia. […] Plasma total IgE was measured using a classical immunoassay isotope-specific sandwich ELISA. […] Signal intensities of labeled total murine IgE were measured at 450 nm in a standard microwell ELISA reader and results reported in ng/ml based on a standard curve of purified IgE. […]

In the case of `CO[C@H]1C[C@@H]2CC[C@@H](C)[C@@](O)(O2)C(=O)C(=O)N2CCCC[C@H]2C(=O)O[C@H]([C@H](C)C[C@@H]2CC[C@@H](O)[C@H](OC)C2)CC(=O)[C@H](C)/C=C(\C)[C@@H](O)[C@@H](OC)C(=O)[C@H](C)C[C@H](C)/C=C/C=C/C=C/1C` [Rapamycin], the “FOXP3 expression relative to control” value ([1]; concentration not given) is reported as 1.3 fold.

In the case of `C[C@@H]1CCN(C(=O)CC#N)C[C@@H]1N(C)c1ncnc2[nH]ccc12` [Tofacitinib, 3-((3R, 4R)-4-methyl-3-[methyl-(7H-pyrrolo[2,3-d]pyrimidin-4-yl)-amino]-piperidin-1-yl)-3-oxopropionitrile], the “mean terminal plasma half-life” value [2] is listed as 3.2 h, the “proliferation of T cells” value [3] is listed as “significantly decreased” and the “proliferation of B cells” value ([4]; anti-CD40/IL4 low and high stimulation) is listed as “significantly decreased”. For the same molecule, the “IgE production by B cells” value ([4]; anti-CD40/IL4 stimulation, supernatant ELISA) was “decreased”, the “increase of the percentage of FOXP3 expressing cells” value ([1]; 0.1 μM) was “about 2.4 (+/−0.7) fold” and the “FOXP3 producing cells within the living CD4+ T cell population” value ([1]; 0.1 μM) was 57.2-77.1%. The “increase of the percentage of FOXP3 expressing cells” value ([1]; 1 μM) was ~2.5 (+/−1.3) fold, the “FOXP3 producing cells within the living CD4+ T cell population” value ([1]; 1 μM) was 51.1-70.6% and the FOXP3-enhancing effect ([1]; 10 μM) was “diminished”. For the same molecule, the cytotoxicity ([1]; 10 μM, data not shown) was “induced cytotoxicity”.

B1: OVA-ASIT: allergen-specific immunotherapy: subcutaneous injection of chicken ovalbumin (OVA) in OVA-sensitized mice (protein, UniProt P01012 2-386, looked up)
Ovalbumin: GSIGAASMEFCFDVFKELKVHHANENIFYCPIAIMSALAMVYLGAKDSTRTQINKVVRFDKLPGFGDSIEAQCGTSVNVHSSLRDILNQITKPNDVYSFSLASRLYAEERYPILPEYLQCVKELYRGGLEPINFQTAADQARELINSWVESQTNGIIRNVLQPSSVDSQTAMVLVNAIVFKGLWEKAFKDEDTQAMPFRVTEQESKPVQMMYQIGLFRVASMASEKMKILELPFASGTMSMLVLLPDEVSGLEQLESIINFEKLTEWTSSNVMEERKIKVYLPRMKMEEKYNLTSVLMAMGITDVFSSSANLSGISSAESLKISQAVHAAHAEINEAGREVVGSAEAGVDAASVSEEFRADHPFLFCIKHIATNAVLFFGRCVSP
With B1 the “total IgG1 levels” value ([5]; median [quantiles], OVA-allergic mice 0.8267 mg/ml) was 1.936 mg/mL, the “reduction of total IgE-levels” value ([5]; versus OVA-allergic mice) was 43.5% and the “suppression of total broncho-alveolar lavage cell infiltration” value ([6]; compared to OVA-allergic mice, BAL 24 h after last challenge (D-56)) was 88%. The “eosinophil BAL cell infiltration” value ([6]; median [1st, 3rd quantile], OVA-allergic mice 81%, BAL at D-56) was 63.18%, the “IFN-γ in BAL fluid” value ([7]; barely detectable) was “marginally reduced” and the “IL-2 in BAL fluid” value ([7]; barely detectable) was “marginally reduced”. For the same molecule, the “IL-5 secretion in BAL” value ([7]; mouse, in vivo) was “increase”, the “secretion of Th2-cytokine IL-4 in BAL” value ([7]; mouse, in vivo) was “reduced” and the “inhibition of IL-1 beta secretion in BAL fluid” value ([7]; versus OVA-allergic mice) was 80%. For the same molecule, the “inhibition of IL-6 secretion in BAL fluid” value ([7]; versus OVA-allergic mice) was 82%, the “inhibition of TNF-a secretion in BAL fluid” value ([7]; versus OVA-allergic mice) was 84% and the “inhibition of chemokine CXCL1 in BAL fluid” value ([7]; versus OVA-allergic mice) was 21%. The “effects on IL-2 plasma levels” value [8] was “no significant effects”, the “inhibition of IL-1beta plasma levels” value [8] was 41% and the “reduction of IL-6 plasma levels” value [8] was 44%.
